Assay results taken from the DeepSol protein solubility set.

Assay: soluble on expression in E. coli; label from the status in PepcDB or PDB records

Sequence | soluble on expression in E. coli
MDAQLEWASSLVPKRQLQQQQQQQEQQQQQQQDFHKDQLMTVGMRIRQRVDQGYASRTPSTSDASLQPGVIRDYSSVIVPQFTRSPLPTANSLPPMLINQRTMSTEASSLEKWDVAEPAAEHETMVNGSKRRL | soluble
MGSDKIHHHHHHMKNTVAFKTITGRDAVYKAYDAFLGNMGIPHEEVNVDTRFGKAFVIAAGKKDAPVLVLLHGSGINSVMWIKDMEKYSEHYRVYAVDLQGEPGKSDGKQLSFEGSDFDNWLHDVFAGLSVEKASIAGISLGAWLALKFAIANPQMVDKLVLLCPAGVGPQKTSFAYVSLFHMLLWGEKGVERLFRKVNGGKPIPQEIMDYQKLLGNNFNFRREQVPLFSDAELTQLTIPSILFVGQKDVMFHSLKTAQRYRNLVPDAKVIVLREAGHTLIGLVDDILEFLQN | not soluble
KNTPVDAIPDLSDVQVIIKTSYPGQAPQVVEDQVTYPLTTAMLAVPGAETVRGYSFFGDSYVYIIFNDDTDMYWARSRVLEYLSQVAPKLPPNAKPTLGPDATGVGWVYSYVLQDKTGQHDLAELRSLQDWFLKYELQTVDGVSEVATVGGMVKQYQVQIDPAKLRAYNLTLQQVNMAIQNGNQETGASVVEVAEAEHMVRTTGYLTSIEDIKSLPLKVTDKGTPLLLGDIADINLGPQMRRGISELNGEGEAVGGVIVMRYGENASEVISKVKDKLEDLQRSLPDGVEIVTTYDRSTLINAAVDNLWKKLAEEFIVVAIVCALFLFHIRSS | not soluble
MGSDKIHHHHHHVLSNPSQVVLRNIELFESKNVLLINHECDLLATALLEDAAKVTTLALDFNHFQRIKSHENARLQCHFGHQLPSTQTFDAVVLFYPKSKSLAPYLLNLAGRHLIPGGELVIVGEKKGGIRSITKQLPDYFDGGIKLDNARHCMLYSSSLLSEAPEIKLSDWVKDYVLSTPQGELTICNLVGVFSEKRLDEGTELLLEHLPTLKGRVLDFGCGAGVITAALLKANPDLELECVDINAMALASCELTLAANGMQAKVYASDGLTQTQGMFDAIISNPPFHDGLDSTTEIATRFVQESEAQLKSGGIFQIVANRHLPYSDTIAKFFKTVNVAAENNKYKIYANRKA | not soluble
MAEIDYKKVTGMIHSTESFGSVDGPGIRFIIFMQGCKMRCQYCHNPDTWEMETNNSKERTVEDVLKEALRYKHFWGKDGGITVSGGEAMLQIDFITALFIEAKKLGIHTTLDTCGFAYRATPEYHAILEKLLDVTDLVLLDLKEIDSEQHKIVTRQSNKNILQFARYLSDRGTPVWIRHVLVPGLTDIDDHLKRLGEFVQTLDNVDKFEVLPYHTMGEFKWRELGIPYPLAGVKPPTPERVKNAKDIMKTESYTEYLKRIQN | soluble
MVLFTGKTVEEAIETGLQELGLSRLKAHIKVISKEKKGFLGFGKKPAQVDIEGISDKTVYKADKKATRGVPEDINRQNTPAVNSADVEPEEIKATQRLEAEDTKVVPLMSEDSPAQTPSNLAETVTETKAQQPSIPVEESEVPQDAGNDGFSKDIEKAAQEVSDYVTKIIYEMDIEATVETSNNRRQINLQIETPEAGRVIGYHGKVLKSLQLLAQNFLHDRYSKNFSVSLNVHDYVEHRTETLIDFTQKVAKRVLESGQDYTMDPMSNSERKIVHKTVSSIEGVDSYSEGNDPNRYVVVSLQR | not soluble
MGSDKIHHHHHHMNETVSLETREVRFLSVFDFDGTLTYRDSFVPFLRFAFGNRVFVRRMLRMAGPSLAYLCRRIDRDDLKARLIATFLTDVPVHVLEERALAYQNRFWETLMRPHALTAVADQVSSGSTVTICSASPSLLLRPFAEKLGVHLIATELEVVDGVLTGRIVGRNCRRDEKVCRLERHYGPLTQYSLRAWGDSRGDTELLAAALERFWKPFR | not soluble
MISDSKLLASAAWDAQSLNELKAKASEDPAANIRPVARQVEGMFVQMMLKSMRDALPKDGLFSSEHTRLYTSMYDQQIAQQMTAGKGLGLAEMMVKQMTPEQPLPEESTPAAPMKFPLETVVRYQNQTLSQLVQKAVPRNYDDSLPGDSRAFLAQLSLPAQLASQQSGVPHHLILAQAALESGWGQRQIRRENGEPSYNLFGVKASGNWKGQVTEITTTEYENGEAKKVKAKFRVYSSYLEALSDYVGLLTRNPRYAAVTTAASAEQGAQVLQDAGYATDPHYARKLTNMIQQMKSISDKVSKTYSMNIDNLF | not soluble
MEITPKRYWRRWRGYEKLDGSSETTSGRRKGKRVKMDPTRKKRFWRIKIVPKLRILKTASPKKFLVWLRDSYVKMMMRLANSRVVGSSGYGGSGFGSGQMKEYDEKMLVEIYKSILMVQAQGNLVHRDTPNNNLKLPSEPAVVSVVSSVVTC | not soluble
MSADNLLLDFTSPGAIPPDPAEVVRRVVDETQTTMRALESLLENERIEDMTGWRLLAMFYLATDRLNDLAKIEKQYKSITGVSLSADLKQKYPQWFNGEAVSHPVVFEIPKKITAAALPDSIIIQRGQCSPGGILLDFSQVQEIDNDGLKKLAQLFSSLAQENTRPKLRQADRFITCLQNKAETGTGTRAIWDVLFAYERFRDDREAFEEKAIKFAVLYGISPPSWE | not soluble
GAASEAEYGKVSKAWTLHADGSQEYRSSMELTLFTHTAMNSTYGESFIVYNPDFQTLKIHSSYTRQKDGTIVKTPDNAFVEVLPRFAADAPAYNQLKEMVVVHTGLELGATIYLDYSIITKPGYYPALDINERLQETSPVKECKVSISVPEGTPLACGLYGSPVKAVEESHDGIKEVHWTLRNIPASSREAFQPKNREASPHLVASTYPSGKAALATLDKRLKESQGYESKTFAQFLTDKSGNEQEKVNIIRDHILNNLSTCPIPMAMTGYTVRDIDTVLRSAYGTPLEIAQLLNVMLNAAGIPSEVLAVYPGHLDTDACGLAAIQTLAVKATVDGKDQYLSASPLTNRGGLDKVVSLSGTSIEIETTPIQIKESRSVAISADQAKDGFAICVLPAISAGIDSWGMSALNSKRSNLFELPSLIREEVTYTVTPAEGMKLQTSTQEQVISKPFGKVTRTITPRGNTIEVVRTIELNKQQFTPAEYSDVRSLIHEWTNPDNRVLLFSL | soluble
MGSDKIHHHHHHMNTNTSITIQKPKTDELLLWNLLFADTGRQVLLVAYDIKLFPLLSQKPCTLAEICNELKIFQRPAEAILAVLASIELLEIENNYYSLTLLAKDYLVKSSPTYFGALLEMMIFDERKHISSFDSLKKSLFTNNYPGKKVMESLVKNHDFMRTITFGNNVKLIRGFISSMHGPSMAAALIWPELIDLSEYKLFIDIGGGSAAHSIGATLKWPNLQAVVLELPTVCEIAQEFITHYGLQNRIATQEFDMWSDTFPVGDLHFYSAVYHHWQQEKCQVITKKSFNSLLPGGRIILHEMLFNEQKTGPFPVAAKNLNISLKLGGQQYSGQELSMMLEQAGFIDIEIKPASSYWSIITGRKP | not soluble
GSHMGSLDETTYERLAEETLDSLAEFFEDLADKPYTFEDYDVSFGSGVLTVKLGGDLGTYVINKQTPNKQIWLSSPSSGPKRYDWTGKNWVYSHDGVSLHELLAAELTKALKTKLDLSSLAYSGKDA | soluble
MPPKKAPAKKLHELAAEVRVGHKINDISKKTFIVGKQFATGGFGRIHTCTEEGKSQQMVMKIEPSTNGPLLTEVVVFNRILKKELIESYKKKKKISWIGLPYLIANGYFTYESEKMRYMIIPKYATSLEAVRETNGGTLAMKDSLTVASCILDALEYLHESDYAHADVKAANILLEKQGVYSTAVLVDFGLAHRTTNNVDKPDKKRAHNGTCIFTSTDAHRGNNPSFRGDIEILAYNLMMWATGTLPWMALESSPEKVFDAKQKFIAGLPGTLQNVLKNESSAVVGCIASMFDISMKTNYTDKVDMGKLKKLVTDAIQKTSSDGKKTPTRQKKLAEEDKNAVTPKRSTRRLAVKEESDNKDNDEVEVKPEKKATPRKRTTRKAVEVNNDSDDNEEQYENPKSKSSRTQTKSKRAKEEDVDDEEEIIIPKSSRSRSKVQLSGEGSDVTTPSSAASTSRSRSIRLGLTSSTASSNKVAKKIEQKYKRLSMNKSSLVPVTISVASDKSPTTSTPSSSSGLRSKRKSSEDVGEGITLKTQVLITPAIKKAKTKSGISSATKASPTELRRVPGVRNFPKGRRSMIIKETSAKYKERLASRQTKPTFDDSSCSSEV | not soluble
MEAYDICKFWKLDMLEEFSQIVLKGKKKIILDIPSPSQQNKSDIVSLCPADSPETCNSSIPDWLVKVMRKENGYDPKLIIKRRVLCTTDLRKNQGCLSMHLSKLEKSDFLTEDETRFLDEDFLKAKRDGLKVFLVDPESDKHVVYLKKWNGNTVWKYVLSHGWNNVIDKKIFKVNDVIEIWSFRDGSGKLCFALSSPTRCGRSSSGHSS | soluble
